From patent US20240052061A1 (published 2024)
Changes are numbered by the printed parent chain. Names may count otherwise.

T1: human ecto-nucleoside triphosphate diphosphohydrolase-3 (NTPDase3) (human, UniProt O75355 1-529)
T1 chain: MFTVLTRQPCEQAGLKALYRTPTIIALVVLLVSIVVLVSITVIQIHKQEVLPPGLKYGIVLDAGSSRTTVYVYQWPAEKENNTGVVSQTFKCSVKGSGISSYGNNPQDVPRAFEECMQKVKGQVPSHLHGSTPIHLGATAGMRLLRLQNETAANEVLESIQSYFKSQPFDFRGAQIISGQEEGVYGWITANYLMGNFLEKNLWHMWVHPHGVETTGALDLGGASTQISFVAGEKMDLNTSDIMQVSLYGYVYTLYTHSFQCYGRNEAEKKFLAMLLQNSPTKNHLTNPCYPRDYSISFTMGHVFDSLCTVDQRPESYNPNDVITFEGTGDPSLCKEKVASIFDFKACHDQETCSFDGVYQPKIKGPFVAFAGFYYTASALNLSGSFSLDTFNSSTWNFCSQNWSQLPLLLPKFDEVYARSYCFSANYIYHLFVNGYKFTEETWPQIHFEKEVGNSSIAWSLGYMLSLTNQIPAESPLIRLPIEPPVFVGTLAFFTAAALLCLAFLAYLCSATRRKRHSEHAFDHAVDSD

B1: 38D5 hIgG1 (antibody, V domains shown)
VH: EQQLLESGGGLVQPGGSLRLSCAASGIDFNNYGISWVRQAPGKGLEWIAYKYPGFGIRNYANSVKGRFTISSDNSKNTVYLQMNSLRAEDTAVYFCARGARYRHDDYGALNLWGPGTLVTVSS
VL: DIQMTQSPSTLSASVGDRVTITCQASQSVTNLLAWYQQKPGKPPKLLIYGASNLESGVPSRFSGSGSGTEFTLTISSLQPDDFATYYCQSGYYSANTFGPGTKVDIK
B2: humanized 38D5 hIgG1 variant LC.1 (P43A) (antibody, V domains shown)
VH: B1 VH
VL: B1 VL with P43A
B3: hENTPD3 (RT4 cells) (enzyme)
chain: T1 chain
B4: 8E1 Hu/Ra (antibody, V domains shown)
VH: QSVEESGGRLVTPGTPLTLTCTVSGFSLSSYAMGWVRQAPGKGLEFIGIISYSGNTYYASWAKGRFPISKTSSTTVDLKMTSPTTEDTANYFCARARYGGYSTNSYYLNIWGPGTLVTVSS
VL: DVVMTQTPASVEAAVGGTVTINCQASENIYRVLAWYQQKPGQRPKLLIYGASNLESGVPSRFKGSGSGTDYTLTISDLECDDAATYYCQGVVYNSDDSAFGGGTEVVVKG
B5: 38D5 Hu/Ra (antibody, V domains shown)
VH: QELVESGGGLVQPGGSLKLSCKASGIDFNNYGISWVRQAPGKGLEWIAYKYPGFGIRNYANSVKGRFTISSDNAQNTVFLQMTSLAASDTATYFCARGARYRHDDYGALNLWGPGTLVTVSS
VL: DIVMTQTPPSVSAAVGGTVTINCQASQSVTNLLAWYQQKPGQPPKLLIYGASNLESGVPSRFRGSGSGTEFTLTISGMKAEDAATYYCQSGYYSANTFGAGTKVGIKR

Tests used:
[1] = target: T1, human ecto-nucleoside triphosphate …; test: flow cytometry; CHO-hENTPD3 cells
[2] = target: T1, human ecto-nucleoside triphosphate …; test: flow cytometry; HEK293T-hENTPD3 cells
[3] = target: T1, human ecto-nucleoside triphosphate …; test: flow cytometry; COS7-hENTPD3 cells
[4] = target: T1, human ecto-nucleoside triphosphate …; test: flow cytometry; CHO-hENTPD3 cells
[5] = target: T1, human ecto-nucleoside triphosphate …; test: flow cytometry; COS7-hENTPD3 cells
r3E9 = test: flow cytometry; RT4 cells; rabbit mAb
[6] = target: T1, human ecto-nucleoside triphosphate …; test: flow cytometry; CHO-hENTPD3 cells
[7] = target: T1, human ecto-nucleoside triphosphate …; test: flow cytometry; CHO-hENTPD3 cells
[8] = target: T1, human ecto-nucleoside triphosphate …; test: flow cytometry; CHO-hENTPD3 cells, 2h at 37°C
[9] = target: T1, human ecto-nucleoside triphosphate …; test: flow cytometry; RT4 cells
[10] = target: T1, human ecto-nucleoside triphosphate …; test: flow cytometry; COS7-hENTPD3 cells
[11] = target: T1, human ecto-nucleoside triphosphate …; test: flow cytometry; HEK293T-hENTPD3 cells
[12] = target: T1, human ecto-nucleoside triphosphate …; test: flow cytometry; CHO-hENTPD3 cells, 20 min at 4°C
[13] = target: T1, human ecto-nucleoside triphosphate …; test: flow cytometry; COS7-hENTPD3 cells
[14] = target: T1, human ecto-nucleoside triphosphate …; test: flow cytometry; HEK293T-hENTPD3 cells

Binder	Kd [1]	Kd [2]	Kd [3]	Kd [4]	Kd [5]	Kd [7]	Kd [8]	Kd [10]	Kd [11]	Kd [12]	other results
B1	0.89 nM	4.34 nM	0.52 nM	0.56 nM	0.56 nM						
B2	1.5 nM		0.85 nM								
B3											Kd (r3E9): 0.22 nM
B4						1.59 nM	1.02 nM	0.54 nM	0.33 nM	1.82 nM	Kd [6]: 0.43 nM; Kd [9]: 0.06 nM; Kd [13]: 0.31 nM; Kd [14]: 2.76 nM
B5		6.56 nM		1.11 nM	0.96 nM	26.6 nM	2.54 nM	1.93 nM	2.22 nM	22.3 nM	
